The values below are quoted from earlier work in article PMC9866218, “Characterization and Chemical Synthesis of Cm39 (α-KTx 4.8): A Scorpion Toxin That Inhibits Voltage-Gated K^+ Channel KV1.2 and Small- and Intermediate-Conductance Ca^2+-Activated K^+ Channels KCa2.2 and KCa3.1” (Toxins, 2023).

Where two headings read alike, the source gives them in different places.

Series [1] has as its target KCa3.1 (Homo sapiens) (UniProt O15554).
For series [2] the target is unchanged. The source holds these as a separate data set.

Chain of KCa3.1 (Homo sapiens) (O15554 whole entry): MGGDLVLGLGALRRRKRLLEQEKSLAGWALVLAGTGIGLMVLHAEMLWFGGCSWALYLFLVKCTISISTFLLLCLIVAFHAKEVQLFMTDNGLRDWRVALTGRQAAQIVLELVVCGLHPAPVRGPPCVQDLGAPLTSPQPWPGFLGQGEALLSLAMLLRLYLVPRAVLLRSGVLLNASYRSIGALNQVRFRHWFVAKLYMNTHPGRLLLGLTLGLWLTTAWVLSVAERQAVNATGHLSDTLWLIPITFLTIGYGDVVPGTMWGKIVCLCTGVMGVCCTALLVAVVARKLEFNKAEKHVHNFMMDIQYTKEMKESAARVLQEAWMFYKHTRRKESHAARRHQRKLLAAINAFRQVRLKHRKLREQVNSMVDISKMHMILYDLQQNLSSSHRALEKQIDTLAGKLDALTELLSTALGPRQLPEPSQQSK
Chain of maurotoxin (MTX, α-KTx-6.2) (P80719 whole entry): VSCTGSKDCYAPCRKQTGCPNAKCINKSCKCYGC
Chain of charybdotoxin (ChTx, α-KTx-1.1) (P13487 23-59): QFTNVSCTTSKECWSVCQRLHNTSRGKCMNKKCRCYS

With “charybdotoxin (ChTx, α-KTx-1.1) (from UniProt P13487)”, in the series with KCa3.1 (Homo sapiens) [1], the dissociation constant Kd was 5 nM.

Turning to “maurotoxin (MTX, α-KTx-6.2) (from UniProt P80719)”, in the series with KCa3.1 (Homo sapiens) [2], the Kd is 1 nM.
